First the molecules themselves.
B1: anti-TNF-α antibody Ab1 (antibody, V domains shown)
VH: QSVEESGGRLVTPGTPLTLTCTVSGFSLSTYNMGWVRQAPGKGLEYIGYVLGSGITYYASWAKGRFTISKTSTTVDLEITSPTTEDTATYFCARDAGGRASL
VL: ADIVMTQTPASVEAAVGGTVTIKCQASQNIRSWLAWYQQKPGQPPKLLIYGASTLASGVPSRFQGSGSGTEYTLTIIDLDCADAATYYCQSNYGSNDNSYGNG
notes: Rabbit-derived; they start with the leader peptide and end at CDR3 (no framework 4); no cleavage site is stated for this antibody
B2: anti-TNF-α antibody Ab12 (antibody, V domains shown)
VH: QSVEESGGRLVTPGTPLTLTCTVSGFSLSHYAMGWVRQAPGKGLEWIGIISSNGVTYYATWASGRFTISKTSTTVDLKITSPTTEDTATYFCARGDDTSIIYYIYAFDL
VL: ALVMTQTPSPVSAAVGGTVTISCQSSESVVFNNRLSWYQQKPGQPPKLLIYWASTLASGVPSRFKGSGSGTQFTLTISGVECDDAATYYCAGYKSYSNDDFA
B3: anti-TNF-α antibody Ab4 (antibody, V domains shown)
VH: QSVEESGGRLVTPGTPLTLTCTVSGLSLSTETINWVRQAPGKGLEWIGYIDSSGGTGYANWARGRFTISKTSTTVDLKITSPTTGDTATYFCARGTITTGMNI
VL: MDTRAPTQLLGLLLLWLTGATFAAVLTQTPSPVSAVVGGTVSISCQSSKRVVNSVALSWYQQKPGRSPKLLIYFASKLASGVPSRFKGSGSGTQFTLAISDVQCDDAATYYCAGHYTDSGDDA
B4: anti-TNF-α antibody Ab15 (antibody, V domains shown)
VH: QSVEESGGRLVSPGTPLTLTCTVSGIDLSSYGMGWVRQAPGKGLEYIGYMIASGITYYAAWAKGRFTISKTSSTTVDLKITSPTTEDTATYFCARNYYGMDP
VL: ADIVMTQTPASVSEPVGGTVTIKCQASQSIYSSFSWYQQIPGQRPKLLIYYASTLASGVPSRFSGSGSGTDFTLTISDLECADAATYYCQSNHGSNGDSFGNA
B5: anti-TNF-α antibody Ab7 (antibody, V domains shown)
VH: QSVEESGGRLVTPGTPLTLTCTVSGFSLSSDNMGWVRQAPGKGLEYIGYITYGGFTYYATWAKGRFTISKTSTTVDLKMTSPTTEDTATYFCAREAGGRANV
VL: B1 VL with K23N, N29S, R31V, Q64K, I77S, D80E, D97S, N98H, Y100F, G103T
B6: anti-TNF-α antibody Ab3 (antibody, V domains shown)
VH: QSVEESGGRLVTPGTPLTLTCKVSGFSLSSYDMTWVRQAPGKGLEWIGYIWNDGSTAYASWATGRFTISKTSTTVDLKIASPTTEDTATYFCARGPVFATTLGYYFTI
VL: MDTRAPTQLLGLLLLWLPGSTFAIKVTQTPASVSAAVGGTVSINCQASEDIESYLAWYQQKPGQPPKLLLYDASALASGVPSRFKGSGSGTEYTLTISGVECADAATYYCQQGYSYSNVDNS
B7: anti-TNF-α antibody Ab9 (antibody, V domains shown)
VH: QSVEESGGRLVTPGTPLTLTCTVSGFSLSIYWMTWVRQAPGKGLEWIGVISTDGSAYYATWAKGRFTISKTSSTTVDLRITSPTTEDTATYFCAGGGGMDP
VL: AQVLTQTPSSVSAAVGGTVTVSCQSSQNVYNNNDFVWFQQKPGQPPKRLIYWASTLASGVPSRFKGSGSGTQFTLTINDLECDDAATYYCAGAYITELRT
B8: anti-TNF-α antibody Ab5 (antibody, V domains shown)
VH: B7 VH with T22A, I30V, V49T, S55I, A56T, Y57V, T75A, R79K, I80L
VL: MDTRAPTQLLGLLLLWLPGATLAQVVTQTPASVSAAVGGTVTISCQSSQNVYNNNDLVWFQQKPGQPPKRLVYWASTLASGVSSRFRGSGSGTQFILTISDLQCDDAATYYCAGAYDSEIRA
B9: anti-TNF-α antibody Ab10 (antibody, V domains shown)
VH: B7 VH with K42R, S55T, A56T, T60N, T71A
VL: B7 VL with P8A, V21I, N28S, V36I, P61S, T87V, I95D, T96S, L98V, T100A
B10: anti-TNF-α antibody Ab11 (antibody, V domains shown)
VH: B7 VH with S51A, T52S, A56T, T60S, T71A, R79K, T81A, T85I
VL: AQVMTQTPASVSAAVGGTVTISCQSSESVYNNNDLIWFRQKPGQPPKRLIYWASQLASGVSSRFKGSGSGTQFTLTINDLECDDAATYYCAGAYDSEIRA
B11: anti-TNF-α antibody Ab6 (antibody, V domains shown)
VH: METGLRWLLLVAVFKGVQCQSVEESGGRLVTPGTPLTLTCTVSGFSLSSNTISWVRQAPGKGLEWIGYIWRGVSTYYATWAKGRFTISKTSSTTVDLKITGPTTEDTATYFCARDAGDGGGYSLDL
VL: MDTRAPTQLLGLLLLWLPDARCAYDMTQTPASVEVAGGGTVTIKCQASQSIANRLAWYQQKPGQPPKLLIYYASTLASGVPSRFSGSGSGTEFTLTISGVQCDDAATYYCQQTYSDNNVDNA
B12: anti-TNF-α antibody Ab13 (antibody, V domains shown)
VH: QSVEESGGRLVTPGTPLTLTCTVSGIDLSSYAMGWVRQAPGKGLEYIGYILSSGITYYASWARGRFTISKTSSTTVDLKMTSLTTEDTATYFCARNGNYNSGTDI
VL: ADIVMTQTPASVSEPVGGTVTIKCQASQNIYSTLAWYQQKPGQPPKLLIYLASTLASGVPSRFKGSGSGTQFTLTISDLECADAATYYCQTSHGSNSDSFGYA
B13: anti-TNF-α antibody Ab17 (antibody, V domains shown)
VH: B12 VH with V3L, T15G, P16S, I50V, S52G, A94V, G97D
VL: B12 VL with N29S, Y50S, S92N
B14: anti-TNF-α antibody Ab14 (antibody, V domains shown)
VH: B12 VH with I26F, D27S, L51G, A59T, T71P
VL: B12 VL with S92N
B15: anti-TNF-α antibody Ab18 (antibody, V domains shown)
VH: B12 VH with A94V, S101V
VL: B12 VL with A56E, Q71E, D98E
B16: anti-TNF-α antibody Ab2 (antibody, V domains shown)
VH: QSVEESGGRLVTPGTPLTLTCSVSGFSLNNYVMGWVRQAPGKGLEFIGYIAFGIGPYYASWAKGRFTISSTSSTTVDLKMTSLTPEDTATYFCARGDYSGNDI
VL: ADIVMTQTPSSVSEPVRGTVTIKCQASQNIYSYLSWYQQSPGQPPKLLIYKASTLASGVPSRFKGSGSGTDFTLTISDLECADAATYYCQSNYGSDSDSFGNA
B17: anti-TNF-α antibody Ab16 (antibody, V domains shown)
VH: QSLEESGGRLVKPDETLTITCTVSGIDLNNYNMGWVRQAPGKGLEYIGYILGSGITYYATWAKGRFTISKTSSTTVDLKMTSLTTEDTATYFCAGSIYYRGYGMDP
VL: B4 VL with S29T, F34L, I40K, Y51A, S64K, G97S, F100Y
B18: anti-TNF-α antibody Ab19 (antibody, V domains shown)
VH: B16 VH with V32I, I68S, Y98V
VL: B16 VL with Q38R, K46N, D96N
B19: anti-TNF-α antibody Ab8 (antibody, V domains shown)
VH: B16 VH with S22T, V23A, N29S, S60T, T67S, K79T, D102N
VL: B16 VL with R17G, K23M, S40K, K64A, D96N

Residue numbers refer to the chain shown, from its start.

T1 sequence (P01375 77-233 limits assumed): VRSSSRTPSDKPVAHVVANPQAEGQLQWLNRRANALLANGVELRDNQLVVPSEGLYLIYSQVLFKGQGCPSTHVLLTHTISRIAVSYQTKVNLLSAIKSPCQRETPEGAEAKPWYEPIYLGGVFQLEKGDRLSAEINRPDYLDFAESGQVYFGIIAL

The first assay has as its target T1, Tumor Necrosis Factor-alpha (TNF-α), R&D systems 210-TA / 210-TA-CF (human, UniProt P01375 77-233).
T1 construct: Bought protein; also called huTNF-α
The assay is described as follows: OD versus antibody concentration; the assay is not named for this figure (legend: binding affinity of the anti-TNF-α antibody Ab1).
Take B1: the “EC50 (read off the curve)” value is about 0.05 µg/mL.

In a further assay the target is T1, Tumor Necrosis Factor-alpha (TNF-α), …. The assay is described as follows: cell-based or functional assay.
Consider B1, for which the “EC50 (read off the curve); OD versus antibody concentration (the assay is not named for this figure)” value is about 0.0006 µg/mL.

Another assay shares this target. Briefly: biolayer interferometry (Octet QK); biotinylated TNF-α on streptavidin sensor, antibody 8 nM to 1 nM. On the procedure:
Binding kinetics of certain Anti-TNF-α antibodies referenced in this experiment were determined using biolayer Interferometry on an Octet QK instrument (ForteBio, Menlo Park, Calif.). Biotinylated TNF-α (R&D systems part number 210-TA, biotinylated using Pierce EZ-link sulfo-NHS-LC-LC-biotin product number 21338 according to manufacturer's protocols) was initially bound onto a streptavidin coated biosensor (ForteBio, Menlo Park, Calif. part number 18-5006). TNF-α coated sensors were then incubated with the Anti-TNF-α antibodies at concentrations ranging from 8 nM to 1 nM. Binding was monitored as an increase in signal over a period of 900 seconds.
Sensors removed from the antibody dilutions and immediately incubated in diluent were monitored for a dissociation phase over an 1800 second time period. For these studies, all proteins were diluted using ForteBio's sample diluent buffer (ForteBio, Menlo Park, Calif. part number 18-5028). Analysis of Kinetic data was performed using ForteBio Software utilizing full dissociation modeling.
Molecule B2 displayed a Kd of 0.01 to 0.025 nM.
Molecule B3 registered a dissociation constant Kd of 0.01 nM.
Same read-out and setting: to B4 belongs 0.01 nM; to B1, 0.01 nM; to B5, 0.01 nM.
Same read-out and setting: in the case of B6 it was 0.02 to 0.04 nM.
On the same count and under the same terms, to B7 belongs 0.025 to 0.05 nM.
B8 gave a Kd of 0.025 to 0.05 nM.
With B9, the Kd lay within 0.015 to 0.03 nM.
The same measure, in the same setting: in the case of B10 it was 0.02 nM.
As to B11, the Kd came out at 0.01 nM.
Consider B12, for which the Kd fell in the range of 0.01 to 0.05 nM.
Still for that read-out and setting: in the case of B13 it was 0.01 nM; in that of B14, 0.01 nM; in that of B15, 0.01 nM.
Same read-out and setting: to B16 belongs 0.01 nM.
Same read-out and setting: to B17 belongs 0.01 nM.
Turning to B18, the Kd came to 0.06 nM.
For B19, the Kd was determined as 0.01 nM.

A further assay has the same target. Briefly: OD versus antibody concentration, fitted sigmoid; the assay is not named for this figure (legend: binding affinity of the anti-TNF-α antibody Ab1); the unit is that of the concentration axis, none stands beside the number.
B1 returned an EC50 of 0.0461 µg/mL.

These data come from patent publication US20090022659A1 (ALDERBIO, published 2009).
